Experimental data reported in paper PMC3982999.

Biological target: human ubiquitin (human) (UniProt P0CG48)
Assay: NMR titration

Kd: < 10 µM
Substance: WT spartin 155-367 (GST tag removed) (from UniProt Q8N0X7 155-367) (domain or fragment)
